B1: RE1-silencing transcription factor (Homo sapiens), Q13127 (parent)
chain: MATQVMGQSSGGGGLFTSSGNIGMALPNDMYDLHDLSKAELAAPQLIMLANVALTGEVNGSCCDYLVGEERQMAELMPVGDNNFSDSEEGEGLEESADIKGEPHGLENMELRSLELSVVEPQPVFEASGAPDIYSSNKDLPPETPGAEDKGKSSKTKPFRCKPCQYEAESEEQFVHHIRVHSAKKFFVEESAEKQAKARESGSSTAEEGDFSKGPIRCDRCGYNTNRYDHYTAHLKHHTRAGDNERVYKCIICTYTTVSEYHWRKHLRNHFPRKVYTCGKCNYFSDRKNNYVQHVRTHTGERPYKCELCPYSSSQKTHLTRHMRTHSGEKPFKCDQCSYVASNQHEVTRHARQVHNGPKPLNCPHCDYKTADRSNFKKHVELHVNPRQFNCPVCDYAASKKCNLQYHFKSKHPTCPNKTMDVSKVKLKKTKKREADLPDNITNEKTEIEQTKIKGDVAGKKNEKSVKAEKRDVSKEKKPSNNVSVIQVTTRTRKSVTEVKEMDVHTGSNSEKFSKTKKSKRKLEVDSHSLHGPVNDEESSTKKKKKVESKSKNNSQEVPKGDSKVEENKKQNTCMKKSTKKKTLKNKSSKKSSKPPQKEPVEKGSAQMDPPQMGPAPTEAVQKGPVQVEPPPPMEHAQMEGAQIRPAPDEPVQMEVVQEGPAQKELLPPVEPAQMVGAQIVLAHMELPPPMETAQTEVAQMGPAPMEPAQMEVAQVESAPMQVVQKEPVQMELSPPMEVVQKEPVQIELSPPMEVVQKEPVKIELSPPIEVVQKEPVQMELSPPMGVVQKEPAQREPPPPREPPLHMEPISKKPPLRKDKKEKSNMQSERARKEQVLIEVGLVPVKDSWLLKESVSTEDLSPPSPPLPKENLREEASGDQKLLNTGEGNKEAPLQKVGAEEADESLPGLAANINESTHISSSGQNLNTPEGETLNGKHQTDSIVCEMKMDTDQNTRENLTGINSTVEEPVSPMLPPSAVEEREAVSKTALASPPATMAANESQEIDEDEGIHSHEGSDLSDNMSEGSDDSGLHGARPVPQESSRKNAKEALAVKAAKGDFVCIFCDRSFRKGKDYSKHLNRHLVNVYYLEEAAQGQE

Variants of: B1
Conditions: with fbw1a_human BTRC

Effect of a mutation on the interaction, disrupting interaction strength:
S1027A
S1024A
S1030A

Source: IntAct's records for PubMed 18354483
